This series deals with the molecule itself. The series is described as follows: analytical ultracentrifugation; self-association of the peptide.

Ends that are not written are not given here.

B1: Construct 12 (AP6) (peptide)
peptide: CGGGEIWKQHEEALKKLFAFHFILPFIIMAIAMVHLLFLFGEGL
modifications: also: acetylated (position not given here)
notes: Designed amphiphilic helical peptide made by solid-phase synthesis; Heme cofactors may have been present; also called amphiphilic construct AP6
Regarding B1, the binding result was “binds”.
